# Experimental data reported in US20240425603A1 (Janssen / Centocor, published 2024).
# T1: Recombinant mouse VEGFR1-Fc (R&D Systems) (mouse, UniProt P35969 27-759, limits assumed)
# T1 construct: bought; not shown: Fc part of the bought fusion, not described
# T1 sequence (looked up): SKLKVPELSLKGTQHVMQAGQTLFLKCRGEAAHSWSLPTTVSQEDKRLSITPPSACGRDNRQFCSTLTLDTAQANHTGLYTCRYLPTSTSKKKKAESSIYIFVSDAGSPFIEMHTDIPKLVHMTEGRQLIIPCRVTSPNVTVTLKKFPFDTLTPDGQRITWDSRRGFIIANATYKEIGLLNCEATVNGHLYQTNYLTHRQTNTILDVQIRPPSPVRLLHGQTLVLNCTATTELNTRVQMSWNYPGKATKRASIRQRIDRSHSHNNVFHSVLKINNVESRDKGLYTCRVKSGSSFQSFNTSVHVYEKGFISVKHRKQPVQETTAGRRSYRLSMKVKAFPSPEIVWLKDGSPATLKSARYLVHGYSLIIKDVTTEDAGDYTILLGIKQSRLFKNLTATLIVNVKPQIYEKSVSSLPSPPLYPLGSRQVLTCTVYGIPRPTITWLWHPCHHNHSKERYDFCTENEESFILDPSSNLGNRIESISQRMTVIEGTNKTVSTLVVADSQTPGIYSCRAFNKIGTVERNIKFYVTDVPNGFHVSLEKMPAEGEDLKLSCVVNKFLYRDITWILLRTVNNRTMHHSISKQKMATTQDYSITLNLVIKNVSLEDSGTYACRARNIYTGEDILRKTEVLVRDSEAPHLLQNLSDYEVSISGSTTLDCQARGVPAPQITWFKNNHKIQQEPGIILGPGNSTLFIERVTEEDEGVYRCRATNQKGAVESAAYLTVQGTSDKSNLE
# T2: mouse VEGFR1 (soluble antigen of the KinExA and SPR affinity assays) (mouse, UniProt P35969 23-759, limits assumed)
# T2 sequence (looked up): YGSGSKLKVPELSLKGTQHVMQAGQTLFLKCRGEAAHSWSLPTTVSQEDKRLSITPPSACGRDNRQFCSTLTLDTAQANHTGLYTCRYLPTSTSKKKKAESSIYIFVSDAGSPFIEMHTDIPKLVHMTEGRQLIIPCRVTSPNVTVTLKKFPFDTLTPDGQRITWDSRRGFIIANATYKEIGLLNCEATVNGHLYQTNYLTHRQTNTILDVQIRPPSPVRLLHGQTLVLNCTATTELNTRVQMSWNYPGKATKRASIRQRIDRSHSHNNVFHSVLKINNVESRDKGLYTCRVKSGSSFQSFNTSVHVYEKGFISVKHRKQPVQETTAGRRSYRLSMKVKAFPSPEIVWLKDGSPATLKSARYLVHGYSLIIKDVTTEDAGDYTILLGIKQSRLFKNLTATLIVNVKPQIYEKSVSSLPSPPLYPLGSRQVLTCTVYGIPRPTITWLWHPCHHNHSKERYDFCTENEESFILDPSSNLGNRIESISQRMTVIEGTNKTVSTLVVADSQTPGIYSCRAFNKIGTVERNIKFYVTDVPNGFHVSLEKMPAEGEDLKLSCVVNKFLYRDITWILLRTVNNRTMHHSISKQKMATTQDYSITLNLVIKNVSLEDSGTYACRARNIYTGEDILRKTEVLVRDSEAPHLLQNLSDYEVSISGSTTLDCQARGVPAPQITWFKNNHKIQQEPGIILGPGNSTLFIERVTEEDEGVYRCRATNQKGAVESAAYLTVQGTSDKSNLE
# B1: human VEGFA165 (ligand, UniProt P15692-4 27-191, looked up)
# chain: APMAEGGGQNHHEVVKFMDVYQRSYCHPIETLVDIFQEYPDEIEYIFKPSCVPLMRCGGCCNDEGLECVPTEESNITMQIMRIKPHQGQHIGEMSFLQHNKCECRPKKDRARQENPCGPCSERRKHLFVQDPQTCKCSCKNTDSRCKARQLELNERTCRCDKPRR
# notes: used unlabeled and biotin labeled; also called human VEGF165 (R&D Systems); hVEGFA165
# How the values were obtained:
# His tagged cyno VEGFR1 [1] = biological target: T3, His tagged cyno VEGFR1 (cynomolgus monkey, UniProt A0A2K5VAF2 27-758); assay: MSD ECL competition on plate-bound His-tagged cyno VEGFR1; competitor biotin human PlGF (2 nM)
# Summary of the method: (§1)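 Half-log antibody dilutions were pre-incubated for 30 minutes with VEGFR1 (human or mouse Fc fusion, or His-tagged cyno; 0.5 ug/ml) that had been captured for 1 hour at room temperature on blocked MSD 384 plates coated with Protein A/G or anti-His mAb. Biotinylated VEGFA (0.2 nM) or PlGF (2 nM) was then added and bound ligand was read with Sulfo-tagged streptavidin on an MSD SECTOR S 600 imager. IC50 and maximal percent inhibition were calculated from the electro-chemiluminescence readings.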
# [2] = biological target: T4, Recombinant human VEGFR1-Fc (R&D Systems) (human, UniProt P17948 27-687, limits assumed); assay: MSD ECL competition on plate-bound human VEGFR1-Fc; competitor biotin PlGF (2 nM)
# T4 construct: bought; not shown: Fc part of the bought fusion, not described
# T4 sequence (P17948 27-687 limits assumed): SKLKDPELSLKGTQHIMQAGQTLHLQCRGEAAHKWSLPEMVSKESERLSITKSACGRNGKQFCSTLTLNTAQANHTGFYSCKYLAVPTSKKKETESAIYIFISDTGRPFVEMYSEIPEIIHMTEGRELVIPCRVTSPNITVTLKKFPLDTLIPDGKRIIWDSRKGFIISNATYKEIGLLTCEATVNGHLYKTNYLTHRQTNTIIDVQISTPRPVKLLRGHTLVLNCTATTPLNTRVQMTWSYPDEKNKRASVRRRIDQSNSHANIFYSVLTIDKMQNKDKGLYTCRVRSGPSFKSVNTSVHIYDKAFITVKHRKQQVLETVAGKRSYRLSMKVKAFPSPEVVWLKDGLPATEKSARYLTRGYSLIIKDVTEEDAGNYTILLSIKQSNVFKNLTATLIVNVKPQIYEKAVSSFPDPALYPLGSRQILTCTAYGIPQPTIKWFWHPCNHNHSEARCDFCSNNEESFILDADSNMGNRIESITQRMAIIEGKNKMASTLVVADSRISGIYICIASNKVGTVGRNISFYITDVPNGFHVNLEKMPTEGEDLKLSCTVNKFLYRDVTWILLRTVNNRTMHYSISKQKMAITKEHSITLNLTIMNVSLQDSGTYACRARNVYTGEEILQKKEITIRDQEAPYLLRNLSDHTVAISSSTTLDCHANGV
# Summary of the method: as §1
# [3] = biological target: T1, Recombinant mouse VEGFR1-Fc (R&D …); assay: MSD ECL competition on plate-bound mouse VEGFR1-Fc; competitor biotin mouse VEGFA164 (0.2 nM)
# Summary of the method: as §1
# [4] = biological target: cynomolgus monkey VEGFR1 (soluble antigen of the KinExA and SPR affinity assays) (cynomolgus monkey); assay: KinExA, solution
# Method: (§2) Kinetic exclusion assay (KEA; KinExA) was used to analyze the binding of anti-VEGFR1 antibodies to human, mouse and cynomolgus monkeys VEGFR1. KEA is a fluorescence-based solution method, and it is described in detail in the literature (Darling and Brault, 2004). To measure the affinity of an interaction, a series of solutions with a fixed concentration of one interactant (A) and varying concentrations of another interactant (B) are prepared and allowed to reach equilibrium. After equilibration, the concentration of free A is determined by flowing the equilibrated mixture through a column packed with beads modified with reactant B. Free A binds to the beads and is then detected using a fluorescently labeled polyclonal antibody.
# (§3) Briefly, fixed concentrations (300 pM, 60 pM, 12 pM, 2.4 or 0.5 pM) of Ab were used to prepare a serial dilution of the antigen (2 nM to 0.52 pM, or 800 pM to 5.37 fM). The complex titrations were incubated at RT to reach binding equilibrium for at least 2 days. After incubation, the samples were run on the KinExA3200 or KinExA4000 instrument to assess free antibody in the reaction. During these studies some of the data were rejected because the experiments failed or failed the acceptance criteria. For mouse VEGFR1 the 60 and 300 pM concentrations were rejected due to high titrant related NSB. The dissociation equilibrium constant, (KD), was determined using the n-curve analysis feature of the KinExA Pro software. This program uses nonlinear least-square regression analysis of the globally fitted data to a 1:1 binding model. (CI=confidence interval).
# [5] = biological target: T2, mouse VEGFR1 (soluble antigen of the …); assay: KinExA, solution
# Method: as §2, §3
# [6] = biological target: human VEGFR1 (soluble antigen of the KinExA and SPR affinity assays) (human, UniProt P17948 27-758, limits assumed); assay: KinExA, solution
# Sequence of human VEGFR1 (soluble antigen of the KinExA and SPR affinity assays) (P17948 27-758 limits assumed): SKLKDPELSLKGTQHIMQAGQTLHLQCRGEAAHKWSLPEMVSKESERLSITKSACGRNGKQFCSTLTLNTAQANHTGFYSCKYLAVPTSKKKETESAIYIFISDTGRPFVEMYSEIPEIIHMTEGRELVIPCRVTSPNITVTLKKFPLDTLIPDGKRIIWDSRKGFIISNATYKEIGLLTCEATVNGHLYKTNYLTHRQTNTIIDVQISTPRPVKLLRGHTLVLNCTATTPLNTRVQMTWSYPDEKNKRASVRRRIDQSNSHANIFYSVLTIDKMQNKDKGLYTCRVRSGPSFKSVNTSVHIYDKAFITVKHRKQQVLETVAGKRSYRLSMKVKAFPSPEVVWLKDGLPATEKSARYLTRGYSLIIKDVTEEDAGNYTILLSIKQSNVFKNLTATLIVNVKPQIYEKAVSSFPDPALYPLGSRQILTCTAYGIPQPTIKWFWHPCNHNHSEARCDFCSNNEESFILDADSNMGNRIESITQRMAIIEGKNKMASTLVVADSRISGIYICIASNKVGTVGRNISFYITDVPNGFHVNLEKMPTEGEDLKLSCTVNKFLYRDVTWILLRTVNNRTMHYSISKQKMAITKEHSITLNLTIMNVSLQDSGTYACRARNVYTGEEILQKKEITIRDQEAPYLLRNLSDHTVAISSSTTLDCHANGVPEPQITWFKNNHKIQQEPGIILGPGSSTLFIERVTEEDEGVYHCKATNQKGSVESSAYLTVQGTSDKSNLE
# Method: as §2, §3
# [7] = biological target: T4, Recombinant human VEGFR1-Fc (R&D …); assay: biochemical ligand blocking assay; ligand and receptor form not given
# Summary of the method: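 Antibodies in half-log dilutions were pre-incubated for 30 minutes with recombinant VEGFR1-Fc bound to Protein A/G-coated MSD plates, after which biotinylated ligand was added. Sulfo-tagged streptavidin and an MSD imager were used for detection in this electro-chemiluminescence ligand blocking assay, and IC50 was calculated from the readings.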
# [8] = biological target: T5, human VEGFR1, full length, over-expressed on cells (human, UniProt P17948 27-1338); assay: cell binding assay (column head prints IC50)
# T5 construct: on CHO-K1 or HEK cells; also called hVEGFR1; CHOK1/ human VEGFR1
# T5 sequence (P17948 27-1338 limits assumed): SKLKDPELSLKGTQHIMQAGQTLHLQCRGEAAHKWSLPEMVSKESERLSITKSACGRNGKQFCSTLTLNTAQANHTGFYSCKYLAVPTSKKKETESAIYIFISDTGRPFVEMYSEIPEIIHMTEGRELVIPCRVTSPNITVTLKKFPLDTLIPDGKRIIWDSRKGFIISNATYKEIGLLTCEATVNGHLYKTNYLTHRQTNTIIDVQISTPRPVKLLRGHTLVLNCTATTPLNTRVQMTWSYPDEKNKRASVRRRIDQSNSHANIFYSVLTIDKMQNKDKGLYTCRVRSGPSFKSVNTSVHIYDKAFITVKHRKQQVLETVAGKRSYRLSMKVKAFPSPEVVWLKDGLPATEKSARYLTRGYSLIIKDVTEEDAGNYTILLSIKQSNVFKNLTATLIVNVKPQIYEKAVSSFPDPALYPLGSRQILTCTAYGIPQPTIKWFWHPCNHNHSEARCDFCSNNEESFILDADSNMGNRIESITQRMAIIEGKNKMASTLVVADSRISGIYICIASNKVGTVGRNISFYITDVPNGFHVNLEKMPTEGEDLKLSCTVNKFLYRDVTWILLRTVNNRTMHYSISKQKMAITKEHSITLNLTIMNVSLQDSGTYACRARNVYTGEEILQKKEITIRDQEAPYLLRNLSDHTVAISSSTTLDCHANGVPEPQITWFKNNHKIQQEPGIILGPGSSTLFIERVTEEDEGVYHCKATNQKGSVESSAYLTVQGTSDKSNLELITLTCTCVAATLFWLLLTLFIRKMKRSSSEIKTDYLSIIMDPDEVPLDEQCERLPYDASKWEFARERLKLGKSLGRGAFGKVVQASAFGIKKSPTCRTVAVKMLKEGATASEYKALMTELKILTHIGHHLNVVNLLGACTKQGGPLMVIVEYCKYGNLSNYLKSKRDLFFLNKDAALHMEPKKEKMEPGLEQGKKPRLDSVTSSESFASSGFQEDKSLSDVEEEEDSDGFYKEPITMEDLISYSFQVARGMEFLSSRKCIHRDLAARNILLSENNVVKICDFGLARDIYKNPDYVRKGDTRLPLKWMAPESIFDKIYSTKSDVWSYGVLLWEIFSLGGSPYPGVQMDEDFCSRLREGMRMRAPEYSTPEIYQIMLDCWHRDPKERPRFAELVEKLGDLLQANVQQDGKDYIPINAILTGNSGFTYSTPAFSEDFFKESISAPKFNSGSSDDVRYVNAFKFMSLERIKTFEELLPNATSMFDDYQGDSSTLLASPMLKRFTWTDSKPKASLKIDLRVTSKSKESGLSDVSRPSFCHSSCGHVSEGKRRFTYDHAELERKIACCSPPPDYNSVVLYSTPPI
# human VEGFA165 [9] = biological target: B1; assay: SPR; VEGFR1 D2 alone
# human VEGFA165 [10] = biological target: B1; assay: SPR; against the D1-D3 and D2-D3 constructs
# [11] = biological target: T4, Recombinant human VEGFR1-Fc (R&D …); assay: MSD ECL competition on plate-bound human VEGFR1-Fc; competitor biotin human VEGFA165 (0.2 nM)
# Summary of the method: as §1
# [12] = biological target: recombinant human VEGFR1 (D1-D3) (human, UniProt P17948 27-328, limits assumed); assay: SPR; VEGFR1 D1-D3
# Sequence of recombinant human VEGFR1 (D1-D3) (P17948 27-328 limits assumed): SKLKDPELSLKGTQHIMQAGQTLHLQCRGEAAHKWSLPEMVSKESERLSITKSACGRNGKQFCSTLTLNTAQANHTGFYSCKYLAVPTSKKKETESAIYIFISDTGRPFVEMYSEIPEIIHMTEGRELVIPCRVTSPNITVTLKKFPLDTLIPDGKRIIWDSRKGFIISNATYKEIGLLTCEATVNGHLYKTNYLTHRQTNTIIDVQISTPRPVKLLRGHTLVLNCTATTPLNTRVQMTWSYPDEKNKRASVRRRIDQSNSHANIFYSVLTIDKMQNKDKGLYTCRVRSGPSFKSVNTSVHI
# human VEGFR1 (D2-D3) = human VEGFR1 (D2-D3) (human, UniProt P17948 130-331); assay: SPR; VEGFR1 D2-D3
# His tagged cyno VEGFR1 [13] = biological target: T3, His tagged cyno VEGFR1; assay: MSD ECL competition on plate-bound His-tagged cyno VEGFR1; competitor biotin human VEGFA165 (0.2 nM)
# Summary of the method: as §1
binder,measurement,setting,value
"human PlGF (ligand, UniProt P49763-2 19-149, looked up, ligand on human and cyno VEGFR1; also called placental growth factor) LPAVPPQQWALSAGNGSSEVEVVPFQEVWGRSYCRALERLVDVVSEYPSEVEHMFSPSCVSLLRCTGCCGDENLHCVPVETANVTMQLLKIRSGDRPSYVELTFSQHVRCECRPLREKMKPERCGDAVPRR",IC50,His tagged cyno VEGFR1 [1],13300 pM
same,Max % Inh.,His tagged cyno VEGFR1 [1],99.2%
same,IC50,[2],8920 pM
same,Max % Inh.,[2],98.6%
"mouse VEGFA164 (ligand, UniProt Q00731-2 27-190, looked up, also called VEGFA (mouse VEGFR1 columns)) APTTEGEQKSHEVIKFMDVYQRSYCRPIETLVDIFQEYPDEIEYIFKPSCVPLMRCAGCCNDEALECVPTSESNITMQIMRIKPHQSQHIGEMSFLQHSRCECRPKKDRTKPENHCEPCSERRKHLFVQDPQTCKCSCKNTDSRCKARQLELNERTCRCDKPRR",IC50,[3],150 pM
same,Max % Inh.,[3],99.9%
"VGFB883 (antibody, human IgG1, lambda, L234A L235A, V domains shown, human IgG1 (L234A/L235A/D265S); also called N54Q variant of VGFB54) VH: EVQLLESGGGSVQPGGSLRLSCTASGFNFEDYGMNWVRQAPGKGLDWVSSINRQGDISTYHVDSVKGRFTISRDNSKNTLYLQMNSLRAEDTAIYYCTKNHDYHGMDVWGQGTTVTVSS VL: not shown",Kd,[4],~0.5 pM
same,Kd,[5],> 2000 pM
same,Kd,[6],~0.2 pM
same,IC50,[7],44 pM
same,IC50,[8],65.5 pM
"Domain 2 of hVEGFR1 alone (receptor, also called human VEGFR1 D2) DTGRPFVEMYSEIPEIIHMTEGRELVIPCRVTSPNITVTLKKFPLDTLIPDGKRIIWDSRKGFIISNATYKEIGLLTCEATVNGHLYKTNYLTHRQ",Kd,human VEGFA165 [9],22000 pM
same,fold reduction in affinity,human VEGFA165 [10],~1000 fold
B1,IC50,[11],156 pM
same,Max % Inh.,[11],100%
same,Kd,[12],< 45 pM
same,Kd,human VEGFR1 (D2-D3),< 30 pM
same,IC50,His tagged cyno VEGFR1 [13],261 pM
same,Max % Inh.,His tagged cyno VEGFR1 [13],100%
